Assay results taken from paper PMC3125165.

Target: Escherichia coli FtsZ (Escherichia coli) (UniProt P0A9A6)

Pi released by GTP hydrolysis (MESG/PNP phosphate assay), endpoint as percent of the theoretical maximum, pH 6.0, 0.2 mM GTP, 11 uM FtsZ: 90% | Pi released by GTP hydrolysis (MESG/PNP phosphate assay), endpoint as percent of the theoretical maximum, pH 6.5, 0.2 mM GTP, 11 uM FtsZ: 96% | Pi released by GTP hydrolysis (MESG/PNP phosphate assay), endpoint as percent of the theoretical maximum, pH 7.0, 0.2 mM GTP, 11 uM FtsZ: 87%
Substance: Escherichia coli FtsZ (from UniProt P0A9A6 1-383) (natural protein)
